Experimental data published in patent US20260174875A1 (Novo Nordisk A/S, priority 2023, published 2026).
Numbered stars: 1 amine (or outer) side, 2 acyl side, 3 side chain; on linkers, the order of the positions; unused ones are H or OH. Square brackets hold non-standard residues; d marks the D form. Side chains are listed from the residue outwards. * marks the point of attachment. C18 diacid = O=C(O)CCCCCCCCCCCCCCCCC(=O)*; γGlu = O=C(O)[C@H](CCC(=O)[*:2])N[*:1]; AEEA = NCCOCCOCC(=O)O; Aib = CC(C)(N)C(=O)O

B1: Compound 69 (peptide)
peptide: H[Aib]HGTFTSDYSILLEEQAAREFIEWLLAGGPSRGEASHLSTAQTQRLSAELHK([AEEA-AEEA-γGlu-C18 diacid])LATLPRTETGSGSP-NH2
B2: Compound 68 (peptide)
peptide: Y[Aib]EGTFTSDYSILLEEQAAREFIEWLLAGGPSRGEASHLSTAQTQRLSAELHK([AEEA-AEEA-γGlu-C18 diacid])LATLPRTETGSGSP-NH2
B3: Compound 71 (peptide)
peptide: H[Aib]HGTFTSDYSILLEEQAAREFIEWLLAGGPSRGAPPPSGGGEASHLSTQTQGRLSAELHK([AEEA-AEEA-γGlu-C18 diacid])LATLPRTETGSGSP-NH2
B4: Compound 70 (peptide)
peptide: H[Aib]HGTFTSDYSILLEEQAAREFIEWLLAGGPSRGAPPPSGGGEASELSTAALGRLSAELHK([AEEA-AEEA-γGlu-C18 diacid])LATLPRTETGSGSP-NH2
B5: Compound 75 (peptide)
peptide: H[Aib]HGTFTSDYSILLEEQAAREFIEWLLAGGPSGGEASHLSTAQTQRLSAELHK([AEEA-AEEA-γGlu-C18 diacid])LATLPRTETGSGSP-NH2
B6: Compound 72 (peptide)
peptide: Y[Aib]EGTFTSDYSILLEEQAAREFIEWLLAGGPSRGAPPPSGGGEASHLSTQTQGRLSAELHK([AEEA-AEEA-γGlu-C18 diacid])LATLPRTETGSGSP-NH2
B7: Compound 74 (peptide)
peptide: Y[Aib]EGTFTSDYSILLEEQAAREFIEWLLAGGPSGGEASHLSTAQTQRLSAELHK([AEEA-AEEA-γGlu-C18 diacid])LATLPRTETGSGSP-NH2
B8: Compound 73 (peptide)
peptide: H[Aib]HGTFTSDYSILLEEQAAREFIEWLLAGGPSK([AEEA-AEEA-γGlu-C18 diacid])GEASQLSTAALGRLSAELHRLATLPRTETGSGSP-NH2

Target: T1, human GLP-1 receptor (human, UniProt P43220 24-463)
Test: cell-based or functional assay

Row | Binder | hGLP-1R Potency, no HSA, EC50 [pM]
1 | B1 | 3.45
2 | B2 | 12.1
3 | B3 | 3.34
4 | B4 | 3.48
5 | B5 | 3.66
6 | B6 | 13.1
7 | B7 | 29.8
8 | B8 | 4.55

Target: T2, human amylin-3(a) receptor (human, UniProt P30988 25-474; O60896 24-148)
T2 sequence (looked up) 1: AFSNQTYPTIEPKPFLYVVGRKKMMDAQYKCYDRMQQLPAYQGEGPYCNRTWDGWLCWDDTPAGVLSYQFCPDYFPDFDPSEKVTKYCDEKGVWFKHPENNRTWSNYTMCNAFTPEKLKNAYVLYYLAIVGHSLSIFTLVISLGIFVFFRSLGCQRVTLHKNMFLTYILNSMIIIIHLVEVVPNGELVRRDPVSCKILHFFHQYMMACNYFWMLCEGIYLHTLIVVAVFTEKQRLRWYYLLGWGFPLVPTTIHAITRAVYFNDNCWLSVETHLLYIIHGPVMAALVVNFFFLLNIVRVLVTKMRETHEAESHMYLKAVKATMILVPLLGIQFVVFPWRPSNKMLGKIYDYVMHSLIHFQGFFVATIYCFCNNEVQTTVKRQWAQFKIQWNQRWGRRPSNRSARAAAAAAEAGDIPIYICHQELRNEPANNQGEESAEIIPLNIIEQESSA
T2 sequence (looked up) 2: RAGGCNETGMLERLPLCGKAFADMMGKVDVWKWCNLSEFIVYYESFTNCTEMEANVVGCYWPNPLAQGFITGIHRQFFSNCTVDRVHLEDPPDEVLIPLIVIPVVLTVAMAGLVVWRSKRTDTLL
Test: cell-based or functional assay

Row | Binder | hAMYR3 Potency, no HSA, EC50 [pM]
9 | B1 | 3.43
10 | B2 | 2.57
11 | B3 | 8.66
12 | B4 | 4.53
13 | B5 | 2.49
14 | B6 | 6.57
15 | B7 | 2.73
16 | B8 | 1.99

Target: T3, human GIP receptor (human, UniProt P48546 22-466)
T3 sequence (looked up): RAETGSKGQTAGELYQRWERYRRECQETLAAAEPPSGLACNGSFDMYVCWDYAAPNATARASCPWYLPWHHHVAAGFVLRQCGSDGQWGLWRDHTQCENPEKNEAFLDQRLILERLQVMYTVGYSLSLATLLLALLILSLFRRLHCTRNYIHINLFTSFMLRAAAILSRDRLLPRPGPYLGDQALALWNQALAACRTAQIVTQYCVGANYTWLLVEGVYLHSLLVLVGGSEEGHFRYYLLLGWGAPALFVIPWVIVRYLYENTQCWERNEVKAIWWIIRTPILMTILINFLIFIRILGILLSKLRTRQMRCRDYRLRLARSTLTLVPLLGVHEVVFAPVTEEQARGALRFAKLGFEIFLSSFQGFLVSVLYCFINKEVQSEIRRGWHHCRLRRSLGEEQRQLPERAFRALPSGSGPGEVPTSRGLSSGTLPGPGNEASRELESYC
Test: cell-based or functional assay

Row | Binder | hGIPR Potency, no HSA, EC50 [pM]
17 | B1 | 1.9
18 | B2 | 1.83
19 | B3 | 2.77
20 | B4 | 5.89
21 | B5 | 2.65
22 | B6 | 2.12
23 | B7 | 2.51
24 | B8 | 4.98

Target: T1, human GLP-1 receptor
Test: cell-based or functional assay
Remark: another data set of the same source

Row | Binder | hGLP-1R Potency, 1% HSA, EC50 [pM]
25 | B1 | 20.4
26 | B2 | 51.9
27 | B3 | 18.4
28 | B4 | 18.4
29 | B5 | 25.2
30 | B6 | 41.7
31 | B7 | 141
32 | B8 | 54.1

Target: T2, human amylin-3(a) receptor
Test: cell-based or functional assay
Remark: another data set of the same source

Row | Binder | hAMYR3 Potency, 1% HSA, EC50 [pM]
33 | B1 | 78.9
34 | B2 | 230
35 | B3 | 274
36 | B4 | 59.4
37 | B5 | 110
38 | B6 | 589
39 | B7 | 134
40 | B8 | 61.5

Target: T3, human GIP receptor
Test: cell-based or functional assay
Remark: another data set of the same source

Row | Binder | hGIPR Potency, 1% HSA, EC50 [pM]
41 | B1 | 8.05
42 | B2 | 11.9
43 | B3 | 9.28
44 | B4 | 19.1
45 | B5 | 11.9
46 | B6 | 9.79
47 | B7 | 18.7
48 | B8 | 96.5
